Measurements: US20070065439A1

Target: type I IL-1 receptor (IL-1R) (UniProt P14778)
Assay: cell-based or functional assay

Sequence of type I IL-1 receptor (IL-1R) (P14778 18-569 limits assumed): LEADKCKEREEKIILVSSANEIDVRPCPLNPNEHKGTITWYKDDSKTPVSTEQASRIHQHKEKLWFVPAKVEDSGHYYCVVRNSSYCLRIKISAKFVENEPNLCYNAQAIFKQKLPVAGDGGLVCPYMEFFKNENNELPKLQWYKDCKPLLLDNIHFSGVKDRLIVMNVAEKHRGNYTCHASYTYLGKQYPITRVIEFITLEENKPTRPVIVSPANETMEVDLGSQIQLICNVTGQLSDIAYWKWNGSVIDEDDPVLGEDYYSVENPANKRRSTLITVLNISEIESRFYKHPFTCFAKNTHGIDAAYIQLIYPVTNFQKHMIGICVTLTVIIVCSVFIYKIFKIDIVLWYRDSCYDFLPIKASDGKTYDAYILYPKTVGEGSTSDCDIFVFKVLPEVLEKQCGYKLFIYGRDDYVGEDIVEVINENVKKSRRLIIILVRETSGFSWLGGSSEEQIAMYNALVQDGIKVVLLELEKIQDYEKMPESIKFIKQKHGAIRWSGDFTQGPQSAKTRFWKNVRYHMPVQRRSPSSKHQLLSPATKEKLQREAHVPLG

EC50, inhibition of IL-1β-induced IL-6 production in MRC-5 cells: 77 pM | EC50, inhibition of IL-1β-induced IL-8 production in human whole blood: 984 pM
Substance: anakinra (KINERET) (from UniProt P18510 26-177) (ligand)
